The DeepSol protein solubility set

Assay: soluble on expression in E. coli; label from the status in PepcDB or PDB records

Row | Sequence | soluble on expression in E. coli
1 | MSLKTLATIGDNCVDIYPQLNKAFSGGNAVNVAVYCTRYGIQPGCITWVGDDDYGTKLKQDLARMGVDISHVHTKHGVTAQTQVELHDNDRVFGDYTEGVMADFALSEEDYAWLAQYDIVHAAIWGHAEDAFPQLHAAGKLTAFDFSDKWDSPLWQTLVPHLDFAFASAPQEDEALRLKMKAIVARGAGTVIVTLGENGSIAWDGAQFWRQAPEPVTVIDTMGAGDSFIAGFLCGWSAGMTLPQAMAQGTACAAKTIQYHGAEGHHHHHH | soluble
2 | MSLKTLFDKTNLGTINMKNRFLRGALWTALADEKGHMTNELSDVYEELARGGVGTIVTGYAFVTENEQPNPRMMGIYDDSFIPEYKEFTDKIHRLGSNIIMQIVYGGFMTEFNVGERVIWGPSTTKNEVTGTLSREMTKEDIKYLVNAYAEAALRVKKSGFDGVEIHGGHGYLVSQFLSPYYNKRTDEYGGSIENRGRFVFEIFKAIREKVGEKFPILIKLNSSDYVKEGGLTIEDSLYVAERLAELGIDAIEVTGGNESIEEVMKNNLGPSRTKVAISKDRESYFKEYAIKLAERINKPVILSGGNRHFDVMEELLNDTNIEYFSLSRPLTAEPDLINKWYSGDLKKPKCKSCNQCYKTYGKRCIFNIKEGHHHHHH | soluble
3 | MSLKTTLPISLDWSTEEVIDVVHFFQAIEQAYDQGIAREDLLGKYRRFKEIVPSKSEEKQLFRAYEQENDVSCYQTIKKAREEMEEHIQMEGHHHHHH | soluble
4 | MSLKTVAVIGAMEQEIELLREMMENVKAVSFGRFSAYEGELAGKRMVLALSGIGKVNAAVATAWIIREFAADCVINTGSAGGLGKGLKVGDVVIGTETAHHDVDVTAFGYAWGQVPQLPARFASDGILIEAAKRAARTFEGAAVEQGLIVSGDRFVHSSEGVAEIRKHFPEVKAVEMEAAAIAQTCHQLETPFVIIRAVSDSADEKADISFDEFLKTAAANSAKMVAEIVKSL | soluble
5 | MSLKVFQFKDWAVACDNIRHCEANGTQAGDGDNPVSLLLSRDAGPGSRLSAQLDVDDPDGDKVGKLTLKVGRIKWTGIDAEQAFSDAQTTQLLAAMLDADEVALADGKREWTLSLAGLKAALLKMDDVQGRVGTVGALVKKGGKPESAAPAAQPAPLLVPLAPPAARPGDQKLLPAILKQLRAVDKACWDELPDAEHPDVQLYRLSASQVLVLRECGRGAYQGSYKAWTSGDAPPFHPREVPLRGSDGKETFLMNASFDKGELSSYAKGRGIGDCGSGASWAWTGKDFKLMSAQEAPQCRGIAGGVSLRTWVTRQKEGHHHHHH | soluble
6 | MSLKVGVALSGGVDSAVALYLLLKEGHEVKAFHMKTKEDEFFIKKEIKKKVCCSPSDTADAMRIAHFLGVEIEIVDVKEIFREKVIEPFKRDLLKGLTPNPCAHCNRFVKFGYLMDYVLNQGFDAFASGHYARIEFSEKYGRKVIKKGVDLKKDQSYFLARIEPWRIERLIFPNGIYTKEEIRKIAEEAGIHVAKKQESQDVCFIPDGSIENFLKDEGITLKDGDIITPEGEVVGRHFGYPLYTIGQRKGFKIEKFGRRYYVRGKIPEKNVVVVSDLEDVFFSGLIAEDPVWHVEVPEEFRCVCRVRKKSEEAPAVVKVKDNEVEVSFEKKVFAVTPGQIAAFYDGDTLLGGAIIKEGIREGHHHHHH | soluble
7 | MSLKVVSVDTLCCDAGWRNYHFVKLTTDEGIVGWSEFDEGFGSPGVTAVIEQLGKRLVGASVMEHERFFAEAYCLTRPATGGVVSEGIGAIENALLDAKAKTLNVPCYELLGGKLRDRVPVYWSHCPTWRINHPKFFGPPVTDLDGVKRTAEEARERQFRAIKTNIFIHDDGPLHAWRPGFAVPFQPALNVDRKVLRNLRAHLEALRDGAGPDVEILLDLNFNAKPEGYLKILRELADFDLFWVEIDSYSPQGLAYVRNHSPHPISSCETLFGIREFKPFFDANAVDVAIVDTIWNGVWQSMKIAAFADAHDINVAPHNFYGHLCTMINANFAAAVPNLRIMETDIDRLAWEDELFTHAPEYQNGELIIPDRPGWGTDPVEEAILAHPPKVMGGLLQYKRSEGHHHHHH | soluble
8 | MSLKWIDSHIHVDQYKDEEKSKLLKDVEHSKEIKGLIAVSMNYQSSKETVSLAKRYPFVHPAIGFHPEQPIHKEECEKIYKLIEEHVEDIVAIGEVGLPYYLRKEDKRIAVNSYISVLQRFVELASKYDLPIILHAVYEDADIVCDLLEKYKVSRAHFHWFKGSETTMKRMMRNGYYISITPDVLHKEKIRKIVSYYPLEYMMVETDGPWEFQDDVMTHPGMIREVLKEISVIKNMSVDKVMKTIYENTIQFYPTLTGNKTPTSKFDEGHHHHHH | not soluble
9 | MSLKYDLKYLSVPLPEEIQRVKEFGDFASADIAIDFWLTKELPQALKERLIIEKDVIKMMRMNEYPHSFAKADQMMRDTFQDYQTEELIRLKETGLVDWVYIDGEPYFQLRFLANLIKTNAAYVARLREAESNQLEILRKKELKENIEQMQKNGGRKVRTTIKATIQVKKEFERPGERVRVHLPLPKACQQQSEIEILATSPEATYIAAEDAPQRTLCFETILKENQTFTVEYCYVNRMVYQQLEENNVDKMQPSFDLEEQLPHIRFTPYLRNLADEIVGDESNPLKKARLIYDFVTTKIHYSFMREYFTISNISEYAATNLKGDCGVQAILFITLCRIAGIPAKWQSGLYVSTHYTGCHDWAQFYIKPYGWLFADLSFGGGAYRDGDRQRWNHYFGNLDVFRMVANSEIQADFQPAKMQLRADPIDNQRGEFEYENEGLPYACLIVSQERLSMEELPFDEGGSHHHHHH | soluble
10 | MSLKYFEFTFHTSPCTETVNDVLAAVLGEAGFESFVESEGGLTAYIQQALCDENTIKNAITEFPLPDTEITYTYVEAEDKDWNEEWEKNFFQPIVIDNRCVIHSTFHKDVPQATYDIVINPQMAFGTGHHETTSLIIGELLDNELKDKSLLDMGCGTSILAILARMRGARPCIAIDIDEWCVRNSIENIELNHVDDIAVSQGDASSLVGKGPFDIIIANINRNILLNDMKQYVACMHPGSELYMSGFYVDDIPFIRREAEKNGLTFVHHKEKNRWAAVKFTYEGHHHHHH | soluble
11 | MSLKYIIGMDVGTTATKGVLYDINGKAVASVSKGYPLIQTKVGQAEEDPKLIFDAVQEIIFDLTQKIDGKIAAISWSSQMHSLIGLGSDDELLTNSITWADNCAKSIVQDAKNRGFAQQIYRKTGMPMHPMAPIYKLLWLKNKKTEVFSQAQKWIGIKEYIIFRLTGKLVTDTTMAAGTGILNLKTLTWDQELLDILKIKKEQLPKIAQPTKVIFPIKTEYVKKLGIDSDTKIILGASDGYLSTIGVNAIDSDHCALNVGTSGAIRTIVDQPKIDPSASYFCYPADKTHYLLGGPVNNGGIVFNWARQTLFDADETPQDFLDVAQTAPAGSRNLIFLPYLGGERAPIWDANARGSFVGLTRMHQKPEMARAVIEGIIFNLYDAASNLIKNTKKPVAINATGGFLKSDFVRQLCANIFNVPIVTMKEQQSGTLAAMFLARQALGLNQDLSEIGQFAQADKVYFPNPKEAATYQKLFPLYCEIRNALAASYGKFSNINEGHHHHHH | soluble
12 | MSLKYKLLVLDVDGTLLNDAKEISKRTLAALLKVQQMGVRIVLASGRPTYGLMPLAKSLELGNYGGYILSYNGCQIINAQNGEILFERRINPEMLPYLEKKARKNNFALFTYHDDTIITDTPENEHIQNEARLNNLKVIKEEEFSVAIDFAPCKCMLVSDDEEALVSLEGHWKRRLNGALDVFRSEPYFLEVVPCAIDKANTLGALLEELDVKREEVIAIGDGVCDVTMIQLAGLGVAMGHSQDSVKVCADYVTASNEEDGVALAVEKAIIAEVRAAEIPLDQLNAQARHALMGNLGIQYTYADEDRVEATMPVDHRTRQPFGILHGGATLALGETVAGLGSMILCQPDEIVVGMQVSGNHISSAHEGDTVRAVATIVHKGRSSHVWNVDVFTSTNKLVSSIRVVNSVMKKREGHHHHHH | soluble
13 | MSLKYLGLCTDLYELTMAQSYLYEGKTGTAVFSLFVRKLPEKRNFLISAGLETLVERIKNFKFGDEEIKYLKSLGIFKDDFLDYLKDFEFSGNVYAIPEGRIVFQNEPLVQVEAPIPEAQLLETLVINTIQFETMIASKAVRSYLVAKGKKLVDFGFRRAHGLEAGILAARASYIAGFDGTSNVEAGREFGIPVVGTMAHSYVMIFDKEEDAFRAFAKLYPKNAIFLIDTYDTIEAAKKVVDLAKEGVPVVGVRIDSGDIVKLSKEVRKILDENGLKNVRIIVSGGVDEYKIKEWFDRGAPIDAFGVGTKFITSADAPYFDIAYKLVEYEGKPKYKLSPGKKTFPYKRQVYRYYENGKMKYDETAKWESKREGEPLVELVMKNGKLIKELPSLKEIREVVMSELEKLPENYKDITKHYEYEVKILDWEEGHHHHHH | not soluble
14 | MSLLARYLNLIGRRSASPYRPQRLPAKFDNVIVAMSSGVDSSVAAALFAGEFPNTRGVYMQNWSESQSLDDPGKEPCYERDWRDVNRVAKHLNIRVDKVNFEQDYWIDVFEPMLRGYSEGSTPNPDIGCNKFVKFGKLREWLDEKYGTGNYWLVTGHYARVMQEMNGKGLFHLLRSIYRPKDQSYYLSQINSTVLSSLLLPIGHLTKPEVRDLAKYAGLPTAEKPDSQGICFVNNSQHGKFKNFLKHYLPSSPGDIITVDPQSGAKTTWGRHDGLWSYTIGQKVGISMPQADPNYQGTWFVSEKLRDTNEILIVRGRDNPALYSDTMRIENFSSLGPREDTINAFQNTGALTLQFRSLQVPVQIKSCKLNRSADNLDITIHLASKQRAITPGQSCCLYIDDRVLGSGPISHVNNNDTHAEGHHHHHH | not soluble
15 | MSLLAYTYIEHGKFELREKPEPKITDARDAIVRVTLGSICTSDLHIKHGSVPRAVPGITVGHEMVGVVEEVGAEVTSVRPGDRVTVNVETFCGECFFCHHGYVNNCTDPNGGWALGCRIDGGQAEYVRVPYADQGLNRIPDTVSDEQALFVGDVLATGFWATRISEITEKDTILLIGAGPTGICTLLCSMLKNPKRIIVCEKSPERIQFVREHYPDVLITTPENCKEFVLQNSDHSGADVVLEVAGTEDSFRMAWDCARPNAIVTIVALYDKPLLFPLPEMYGKNLTFKTGGVDGCDCAEILSLIEEGKIDTTPLITHRCSLNEIEEAYRIFENKLDGVIKVAIVCQTESEGHHHHHH | soluble
16 | MSLLDFGFDESRIYFTVTDRFFNGDKNNDDPHGNNYDKKNPYTYHGGDLKGLTDKISYLKELGINTIWITPIVENTDFNQMFSQGKTQYSCHGYWAKDFEKLDPHLGTMDDLKTLIDTAHDSGIKIMVDVVLNHAGYGMKNKDNSGANNSPTEEDIAKFKGMFRENPGNDFITQESAGLPDFKTEDPEVREKLIEWQTGWIERSKTEKGNTIDYFRVDTVKHVDNTTWKAFKNKLTEINPSFKTIGEYFGADINNDGGQLQNGQMDALLDFGYKGKARDFVNGNIEGTSAYLDDRASKISNTNLMGQFLSSHDEDGFLKTVGDDLGKQMLAASLQITDKGIPVIYYGEELGMSGWNGFEQGDQNRYDMDFERLNDPKYKKVHDHYEKLLNIRKEYSKIFSKGNRKTIAGNNEEGYSVVLRSYNGKEITPMNLSENNEEKNITNGQNLFVVLNTKNEDKDISFKTNFKEGEKVKDLYSGNEYSIGKDGKVTVKVPSKEGHHHHHH | not soluble
17 | MSLLEWDLSALFHDKEALQNFTQDQIQQSLNFKKNYENKLYTLNANEFLQALKDYENLNQALGKIMTYAYLLFAKNTQNGSFYAQYEEECKKIEENLLFFELEFCELAPEKSREFTTFCKDYDFYLSNLLQNKRYNLSKNEERIMLYLSNTGANAFSRLFDESMSALKIPFEGKKLSEEEILSKMYDENRKIRKKAAKKFSKVLQKNSRLLSFIINMIKTERKNISLLRGYENAEISRHISNQISQKSVDSLIASAQKHFNLVSQFYKRKKQILGYDELKDYDRYAPIGKEASFDFKTSKNIVLEAFQAFSPQFYDIAKNAFDQGWIDVYPQENKQGGAFSHSATSDAHPFVLLNHTNKRRDLFTLAHELGHTIHQKLSYNVSYLNQNTPLTTAETASVFAEMLVFDFIKDKLKKEELLSLYANKIEDIFATFYRQINFTCFERRLHAQENELSTEEINKIWMEESQKMFQDSVKLTKNYASWWSYIPHFIHSPFYCYAYAYAQLLVLALYGLYKSKKCENFKELYIKMLSLGGSVSPKELVGMFGFDIEDENFWEIGIKEIQKLINEFMELQSEGHHHHHH | soluble
